# Target: mouse GCG-R (in pancreatic islets of mice) (mouse) (UniProt Q61606)
# Assay: cell-based or functional assay
# mouse GCG-R (in pancreatic islets of mice) (mouse), sequence (Q61606 27-485): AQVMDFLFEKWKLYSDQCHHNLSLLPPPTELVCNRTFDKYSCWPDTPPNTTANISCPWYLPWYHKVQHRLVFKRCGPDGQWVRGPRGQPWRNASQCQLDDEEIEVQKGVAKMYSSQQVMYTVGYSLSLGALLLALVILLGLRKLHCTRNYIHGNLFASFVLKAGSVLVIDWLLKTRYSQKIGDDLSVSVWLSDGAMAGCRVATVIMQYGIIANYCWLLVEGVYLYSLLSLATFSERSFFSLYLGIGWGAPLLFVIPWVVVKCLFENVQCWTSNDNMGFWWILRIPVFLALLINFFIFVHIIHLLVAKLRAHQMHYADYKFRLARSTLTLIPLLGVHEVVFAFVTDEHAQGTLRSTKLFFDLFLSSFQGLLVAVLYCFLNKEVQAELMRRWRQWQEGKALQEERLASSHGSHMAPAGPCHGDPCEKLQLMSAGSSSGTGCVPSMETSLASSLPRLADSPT
substance,measurement,value
"native OXM peptide (species not stated, Example 11)","fold-increase in fractional GSIS, GCG-R-/- islets relative to WT",32 % reduction

# Reference: patent publication US20110183902A1
